# System: Cc1cc(=O)oc2cc(NC(=O)[C@H](CCCNC(=N)N)NC(=O)[C@@H]3CCCN3C(=O)CNC(=O)OCc3ccccc3)ccc12
# Assay: Kallikrein inhibition assay utilizing a quenched AMC peptide substrate (FLINT, kinetic read)
# Type: biochemical, human
# Conditions: other: peptide substrate for kallikrein; titration data fit to the Michaelis-Menten equation; pH 7.5
# human plasma kallikrein (Homo sapiens), sequence (chain, as listed by the source): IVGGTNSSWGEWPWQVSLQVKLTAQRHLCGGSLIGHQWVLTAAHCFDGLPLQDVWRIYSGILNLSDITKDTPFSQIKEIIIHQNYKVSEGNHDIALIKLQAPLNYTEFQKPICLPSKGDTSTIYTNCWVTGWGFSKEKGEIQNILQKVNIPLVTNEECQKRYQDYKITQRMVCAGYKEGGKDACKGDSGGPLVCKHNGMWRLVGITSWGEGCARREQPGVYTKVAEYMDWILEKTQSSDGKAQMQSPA
substance,measurement,value
human plasma kallikrein (Homo sapiens),Km,40 µM
same,kcat,0.76 s⁻¹
same,kcat/Km,18932 M-is-1

# From patent US20230183233A1, “Bicyclic Pyridin-2-one and pyrimidin-4-one Derivatives Useful As a Factor XIa Inhibitors” (Janssen Pharmaceutica NV, priority 2021, published 2023)
